Read-outs that look alike come from different tables or passages of the source.
Tests used:
human CD33 [1] = target: T1, human CD33 (human, UniProt P20138 18-259, limits assumed); experiment: BLI (ForteBio), Fab 100 nM on immobilized CD33
T1 construct: Human CD33 immobilized on the BLI sensor tip or the BIAcore C1 chip; also called Siglec-3
Protocol: (§1) The affinities (KD) of the humanized antibodies for human CD33 were measured for each antibody by BioLayer Interferometry in a ForteBio assay according to standard techniques (Estep et al. (2013) MAbs 5(2): 270-8). […] The assay was carried out at room temperature.
The affinities of AB-H14 and its affinity-matured variants (Table 15) and AB-H63 and its affinity-matured variants (Table 16), for human CD33 were measured by Fortebio assay according to the method described in Example 1 above.

[2] = target: T2, human CD33 on primary human monocyte-derived dendritic cells (human, UniProt P20138 18-364); experiment: cell-based or functional assay
T2 sequence (P20138 18-364): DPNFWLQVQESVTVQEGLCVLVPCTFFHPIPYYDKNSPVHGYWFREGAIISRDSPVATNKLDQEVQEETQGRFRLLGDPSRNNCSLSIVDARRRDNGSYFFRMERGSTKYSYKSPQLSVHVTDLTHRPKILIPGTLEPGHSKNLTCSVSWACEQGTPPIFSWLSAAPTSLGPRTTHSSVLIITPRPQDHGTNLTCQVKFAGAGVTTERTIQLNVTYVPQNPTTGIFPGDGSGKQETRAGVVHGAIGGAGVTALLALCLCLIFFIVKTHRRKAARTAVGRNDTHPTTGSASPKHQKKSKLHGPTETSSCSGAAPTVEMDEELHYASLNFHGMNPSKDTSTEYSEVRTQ

[3] = target: T2, human CD33 on primary human …; experiment: cell-based or functional assay; remark: listed apart in the source
human CD33 [4] = target: T1, human CD33; experiment: BLI (ForteBio), Fab 100 nM on immobilized CD33; remark: listed apart in the source
Protocol: as §1

human CD33 [5] = target: T1, human CD33; experiment: SPR (BIAcore), Fab over CD33 on C1 chip
Protocol: (§2) The affinity parameters for 10 of the 88 humanized antibodies (AB-H1, AB-H3, AB-H6, AB-H11, AB-H22, AB-H24, AB-H26, AB-H63, AB-H64, and AB-H71) were measured in a separate experiment by a more sensitive technique, surface plasmon resonance (BIAcore), and compared to Chimeric Ab and Chimeric Ab #2. BIAcore measurements were performed as follows: human CD33 was immobilized on the surface of a C1 chip, and Fabs were injected for 300 s to monitor association, followed by a 900 s flow in running buffer to monitor dissociation. The Fabs were measured at 5 concentrations: a high concentration of 27 nM and 3-fold serial dilutions.
In a separate experiment, as determined by the more sensitive BIAcore technique, affinity parameters of affinity matured antibodies derived from the humanized antibody AB-H64 were measured and were directly compared to that of the Chimeric Ab, according to the method described in Example 1 above.

[6] = target: T2, human CD33 on primary human …; experiment: cell-based or functional assay; remark: listed apart in the source
[7] = target: T2, human CD33 on primary human …; experiment: cell-based or functional assay; remark: listed apart in the source
human CD33 [8] = target: T1, human CD33; experiment: ligand-blocking red blood cell solid adhesion assay: antibody pre-incubated on plate-bound CD33-Fc, then binding of red blood cells (sialic acid-containing CD33 ligands) read as peroxidase activity (TMB, 450 nm), relative to no antibody; blocked ligand: CD33 ligands on red blood cells
Protocol: The affinity matured antibody, AB-64.1 and two of its variants, AB-64.1.2 and AB-64.1.8, were evaluated for their ability to compete with CD33 ligand for binding to CD33 using a red blood cell (RBC) solid adhesion assay, according to standard protocols (Kelm, et al. Current Biology, 1994). Red blood cells are highly decorated with glycoproteins containing sialic acids; therefore the ability of an antibody to block RBC binding to immobilized CD33 was used to determine ligand interference. Briefly, 96-well Immunolon plates were coated overnight with 5 μg/mL CD33-Fc, then were washed with PBS and blocked for one hour with binding buffer (PBS containing 0.25% BSA and 1 mM CaCl₂)). CD33 antibodies were added and incubated for one hour at room temperature with gentle rocking. After removal of unbound antibody, RBCs were added to each well at 3.0×10⁶ cells/mL and incubated at room temperature for one hour. Unbound RBCs were then carefully removed by washing three times with PBS, after which water was added to each well to induce hypotonic lysis of bound RBCs. The plate was transferred to −80° C. for 10 minutes, followed by 37° C. for 15 minutes. Quantification of bound RBCs was measured as peroxidase activity by adding TMB, followed by the addition of 2N sulfuric acid to stop the reaction. Signal was detected at 450 nm. Data was calculated as a percentage of RBC binding to plate-bound CD33-Fc in the absence of antibody.

human CD33 [9] = target: T1, human CD33; experiment: BLI (ForteBio), Fab 100 nM on immobilized CD33; remark: listed apart in the source
Protocol: as §1
The affinity parameters of two of the antibodies, 64.1.2 and 64.1.8, were measured in a separate experiment by BIAcore, where they were directly compared to the parental antibody, AB-64.1, the parental humanized antibody, AB-H64, and the Chimeric Ab.

human CD33 [10] = target: T1, human CD33; experiment: SPR (BIAcore), Fab over CD33 on C1 chip; remark: listed apart in the source
Protocol: as §2

[11] = target: T2, human CD33 on primary human …; experiment: cell-based or functional assay; remark: listed apart in the source
[12] = target: T2, human CD33 on primary human …; experiment: cell-based or functional assay; remark: listed apart in the source
human CD33 [13] = target: T1, human CD33; experiment: BLI (ForteBio), Fab 100 nM on immobilized CD33; remark: listed apart in the source
Protocol: as §1
The affinities of AB-H64 and its variants (Table 5) for human CD33 were measured by Fortebio assay according to the method described in Example 1 above.

[14] = target: T2, human CD33 on primary human …; experiment: cell-based or functional assay; remark: listed apart in the source

T1 sequence (P20138 18-259 limits assumed): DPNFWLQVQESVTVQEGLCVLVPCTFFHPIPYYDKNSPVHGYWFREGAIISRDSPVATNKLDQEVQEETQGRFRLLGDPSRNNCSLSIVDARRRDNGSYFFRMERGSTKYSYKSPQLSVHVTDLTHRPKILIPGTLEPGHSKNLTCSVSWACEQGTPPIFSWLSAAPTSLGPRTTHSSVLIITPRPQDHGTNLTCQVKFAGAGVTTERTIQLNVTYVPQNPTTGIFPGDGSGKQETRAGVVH

Binder	Receptor downregulation (EC50) [3] [nM]	Kd (human CD33 [4]) [nM]	Kd (human CD33 [5]) [nM]	koff (human CD33 [5]) [s⁻¹]	kon (human CD33 [5]) [M⁻¹ s⁻¹]	Maximal Downregulation (% CD33 remaining) [6] [%]	Receptor downregulation (EC50) [6] [nM]	Kd (human CD33 [10]) [nM]	koff (human CD33 [10]) [s⁻¹]	kon (human CD33 [10]) [M⁻¹ s⁻¹]	Maximal Downregulation (% CD33 remaining) [12] [%]	Receptor downregulation (EC50) [12] [nM]	other results
AB-H14 (antibody, V domains shown, Humanized variant of murine 2F5.1) VH: QVQLVQSGAEVKKPGASVKVSCKASGYTFTDYNLHWVRQAPGQGLEWIGFIYPSNGITGYAQKFQGRVTMTVDTSTSTVYMELSSLRSEDTAVYYCARSTVDYFDYWGQGTLVTVSS VL: DIQMTQSPSSLSASVGDRVTITCRASQSVSTSTYSYMHWYQQKPGKAPKLLIKYASNLESGVPSRFSGSGSGTDFTLTISSLQPEDFATYYCQHSWEIPLTFGQGTKLEIK	0.042	3.42	–	–	–	–	–	–	–	–	–	–	Kd (human CD33 [1]): 2.91 nM; koff (human CD33 [1]): 0.00115 s⁻¹; kon (human CD33 [1]): 397000 M⁻¹ s⁻¹; Maximal Downregulation (% CD33 remaining) [2]: 15%; Receptor downregulation (EC50) [2]: 0.151 nM
AB-64.1.8 (antibody, V domains shown, Variant of AB-64.1) VH: QVQLVQSGAEVKKPGASVKISCKASGYTFTDYNLHWVRQAPGQGLEWIGFIYPSNQITGYAQKFQGRATLTVDNSASTAYMELSSLRSEDTAVYYCARSDVDYFDYWGQGTLLTVSS VL: DIVLTQSPDSLAVSLGERATINCRASQSVSTSTYSYMHWYQQKPGQPPKLLIKYASNLESGVPDRFSGSGSGTDFTLTISSLQAEDVAVYYCQHSWEIPLTFGQGTKLEIK	–	–	0.175	0.000634	3.62e+06	30.1	0.0282	–	–	–	–	–	Fold Change to AB-H64 (human CD33 [5]): 12.3 fold; Fold Change to Chimeric Ab (human CD33 [5]): 9.29 fold; Receptor downregulation (% remaining at 0.16 µg/mL antibody) [7]: 32.7%; EC50 (human CD33 [8]): 0.62 nM; Kd (human CD33 [9]): 0.802 nM
AB-H15 (antibody, V domains shown, Humanized variant of murine 2F5.1) VH: QVQLVQSGAEVKKPGASVKISCKASGYTFTDYNLHWVRQAPGQGLEWIGFIYPSNGITGYAQKFQGRATLTVDTSTSTAYMELSSLRSEDTAVYYCARSTVDYFDYWGQGTLLTVSS VL: DIQMTQSPSSLSASVGDRVTITCRASQSVSTSTYSYMHWYQQKPGKAPKLLIKYASNLESGVPSRFSGSGSGTDFTLTISSLQPEDFATYYCQHSWEIPLTFGQGTKLEIK	0.0586	5.45	–	–	–	–	–	–	–	–	–	–	–
AB-H9 (antibody, V domains shown, Humanized variant of murine 2F5.1) VH: QVQLVQSGAELKKPGASVKVSCKASGYTFTDYNLHWVRQAPGQRLEWIGFIYPSNGITGYSQKFQGKATLTVDTSASTAYMELSSLRSEDTAVYYCARSTVDYFDYWGQGTTVTVSS VL: DIQMTQSPSSLSASVGDRVTITCRASQSVSTSTYSYMHWYQQKPGKAPKLLIYYASNLESGVPSRFSGSGSGTDFTLTISSLQPEDFATYYCQHSWEIPLTFGQGTKLEIK	0.0234	3.5	–	–	–	–	–	–	–	–	–	–	–
AB-H65 (antibody, V domains shown, Humanized variant of murine 2F5.1) VH: QVQLVQSGAEVKKPGASVKVSCKASGYTFTDYNLHWVRQAPGQGLEWMGFIYPSNGITGYAQKFQGRVTMTRDTSTSTVYMELSSLRSEDTAVYYCARSTVDYFDYWGQGTTVTVSS VL: DIVLTQSPDSLAVSLGERATINCRASQSVSTSTYSYMHWYQQKPGQPPKLLIKYASNLESGVPDRFSGSGSGTDFTLTISSLQAEDVAVYYCQHSWEIPLTFGQGTKLEIK	0.0481	8.57	–	–	–	–	–	–	–	–	–	–	–
AB-H63 (antibody, V domains shown, Humanized variant of murine 2F5.1) VH: QVQLVQSGAEVKKPGASVKVSCKASGYTFTDYNLHWVRQAPGQGLEWIGFIYPSNGITGYAQKFQGRVTMTVDTSTSTVYMELSSLRSEDTAVYYCARSTVDYFDYWGQGTLVTVSS VL: DIVLTQSPDSLAVSLGERATINCRASQSVSTSTYSYMHWYQQKPGQPPKLLIKYASNLESGVPDRFSGSGSGTDFTLTISSLQAEDVAVYYCQHSWEIPLTFGQGTKLEIK	0.0041	4.07	–	–	–	–	–	3.53	0.00263	744000	20.3	0.032	Fold Change to Chimeric Ab (human CD33 [10]): 0.46 fold; Kd (human CD33 [1]): 2.72 nM; koff (human CD33 [1]): 0.00168 s⁻¹; kon (human CD33 [1]): 615000 M⁻¹ s⁻¹; Maximal Downregulation (% CD33 remaining) [11]: 16.1%; Receptor downregulation (EC50) [11]: 0.0726 nM
AB-H66 (antibody, V domains shown, Humanized variant of murine 2F5.1) VH: QVQLVQSGAEVKKPGASVKISCKASGYTFTDYNLHWVRQAPGQGLEWIGFIYPSNGITGYAQKFQGRATLTVDTSTSTAYMELSSLRSEDTAVYYCARSTVDYFDYWGQGTTVTVSS VL: DIVLTQSPDSLAVSLGERATINCRASQSVSTSTYSYMHWYQQKPGQPPKLLIKYASNLESGVPDRFSGSGSGTDFTLTISSLQAEDVAVYYCQHSWEIPLTFGQGTKLEIK	0.0393	5.54	–	–	–	–	–	–	–	–	–	–	–
AB-H64 (antibody, V domains shown, Humanized variant of murine 2F5.1; also called parental humanized antibody) VH: QVQLVQSGAEVKKPGASVKISCKASGYTFTDYNLHWVRQAPGQGLEWIGFIYPSNGITGYAQKFQGRATLTVDNSTSTAYMELSSLRSEDTAVYYCARSTVDYFDYWGQGTLLTVSS VL: DIVLTQSPDSLAVSLGERATINCRASQSVSTSTYSYMHWYQQKPGQPPKLLIKYASNLESGVPDRFSGSGSGTDFTLTISSLQAEDVAVYYCQHSWEIPLTFGQGTKLEIK	0.0137	4.08	2.15	0.00221	1.03e+06	22.4	0.029	2.15	0.00221	1.03e+06	22.4	0.029	Fold Change to Chimeric Ab (human CD33 [5]): 0.76 fold; Fold Change to Chimeric Ab (human CD33 [10]): 0.76 fold; Kd (human CD33 [13]): 2.86 nM; Receptor downregulation (EC50) [14]: 0.0366 nM
Chimeric Ab (antibody, V domains shown, Chimeric antibody with the variable regions of murine 2F5.1; also called parental antibody; comparator antibody) VH: EVQLQQSGPELVKPGASVKISCKASGYTFTDYNLHWVKLSHGKSLEWIGFIYPSNGITGYNQKFKNKATLTVDNSSSTAYMELRSLTSEDSAVYYCARSTVDYFDYWGQGTTLTVSS VL: DIVLTQSPASLAVSLGQRATMSCRASQSVSTSTYSYMHWYQQKPGQPPKLLIKYASNLESGVPARFSGSGSGTDFTLNIHPVEEEDTATYYCQHSWEIPLTFGAGTKLELK	0.0743	5.22	1.63	0.00162	995000	24.1	0.0869	1.63	0.00162	995000	24.1	0.0869	–
